Measured values: PMC11257983 (2024)

B1: Flag-CNK^2–549 [Drosophila] / GST-HYP [Drosophila] (parent complex)
chain 1: AYINIAEWTPDQVTDWIKGLDESMKGYLYEFSKQEIGGRALLNIRPYELENLGMLRIGHQEIVLEAVENLRNFHYHLKNDNLQFMALHVATAAKNLHRELARNHAESTKIDTRILHDITRTIATLKPLVGSLERTPFRKQEMYREYCGNVLKCGLELATIAHRDRFALQPVPAIRQSAERLENLANFVIQDISDPMVLQPASLNLVTLKKRESELGFNIESSYNGIHRVTDIKYNSPAHNSGKIEDGDEIVQINYQTVVGWQHRTVLEHLREALPDVVLTVKKRPKHTKMFGQIYMQPYRLPSKKRNMAARWAAQMPSPRAAFLTLDTEQLATGGTGSAVPDPSKSLSSEKREVLTKANPVSSASDSDSSCSDIPTPTDPKLAAREIRLYYPKPRALLQRRNTICGCEYLSLKNSDLVVPSWHERKPGIGSPTNCDPGSPSIRDKSISFGYGLEMAARPTTCIGIAGDTSTDKARRMFHEARKLKQLTEDSQREFLVDRYKPGVSKVVRFDAKEDYVMKNEKFICNVENTILETFEPIPFADEGDEDA
chain 2: MGEETINSTQNKTRTKTTRPKAVYLWTVSDVLKWYRRHCGEYTQYEQLFAQHDITGRALLRITDSSLQRMGVTDNRDREAIWREIVKQRLKTDIMEIRDMERLNIY

Variants of: B1
Experiment: GST pull-down, immunoblot quantification; S2 cells; GST-HYP + RRKM co-expressed; anti-Flag (CNK) blot; parent: 1

ratio to parent | Variant
1.03 | chain 1 AYINIAEWTPDQVTDWIKGLDESMKGYLYEFSKQEIGGRALLNIRPYELENLGMLRIGHQEIVLEAVENLRNFHYHLKNRNLQFMALHVATAAKNLHRELARNHAESTKIDTRILHDITRTIATLKPLVGSLERTPFRKQEMYREYCGNVLKCGLELATIAHRDRFALQPVPAIRQSAERLENLANFVIQDISDPMVLQPASLNLVTLKKRESELGFNIESSYNGIHRVTDIKYNSPAHNSGKIEDGDEIVQINYQTVVGWQHRTVLEHLREALPDVVLTVKKRPKHTKMFGQIYMQPYRLPSKKRNMAARWAAQMPSPRAAFLTLDTEQLATGGTGSAVPDPSKSLSSEKREVLTKANPVSSASDSDSSCSDIPTPTDPKLAAREIRLYYPKPRALLQRRNTICGCEYLSLKNSDLVVPSWHERKPGIGSPTNCDPGSPSIRDKSISFGYGLEMAARPTTCIGIAGDTSTDKARRMFHEARKLKQLTEDSQREFLVDRYKPGVSKVVRFDAKEDYVMKNEKFICNVENTILETFEPIPFADEGDEDA [chain 1 D80R]
0.31 | chain 1 AYINIAEWTPDQVTDWIKGLDESMKGYLYEFSKQEIGGRALLNIRPYELENLGMLRIGHQEIVLEAVENLRNFHYHLKNDNLQFMALHVATAAKNLHRELARNHAESTKIDTRILHDITRTIATLKPLVGSLERTPFRKQEMYREYCGNVLKCGLELATIAHRDRFALQPVPAIRQSAERLENLANFVIQDISDPMVLQPASLNLVTLKKRESELGFNIESSYNGIHRVTDIKYNSPAHNSGKIEDGDEIVQINYQTVVGWQHRTVLEHLREALPDVVLTVDKRPKHTKMFGQIYMQPYRLPSKKRNMAARWAAQMPSPRAAFLTLDTEQLATGGTGSAVPDPSKSLSSEKREVLTKANPVSSASDSDSSCSDIPTPTDPKLAAREIRLYYPKPRALLQRRNTICGCEYLSLKNSDLVVPSWHERKPGIGSPTNCDPGSPSIRDKSISFGYGLEMAARPTTCIGIAGDTSTDKARRMFHEARKLKQLTEDSQREFLVDRYKPGVSKVVRFDAKEDYVMKNEKFICNVENTILETFEPIPFADEGDEDA [chain 1 K282D]

Variants of: B1
Experiment: GST pull-down, immunoblot quantification; S2 cells; only Flag-CNK2–549 and GST-HYP co-expressed; anti-Flag blot; parent: 1

ratio to parent | Variant
0.46 | chain 1 AYINIAEWTPDQVTDWIKGLDESMKGYLYEFSKQEIGGRALLNIRPYELENLGMLRIGHQEIVLEAVENLRNFHYHLKNRNLQFMALHVATAAKNLHRELARNHAESTKIDTRILHDITRTIATLKPLVGSLERTPFRKQEMYREYCGNVLKCGLELATIAHRDRFALQPVPAIRQSAERLENLANFVIQDISDPMVLQPASLNLVTLKKRESELGFNIESSYNGIHRVTDIKYNSPAHNSGKIEDGDEIVQINYQTVVGWQHRTVLEHLREALPDVVLTVKKRPKHTKMFGQIYMQPYRLPSKKRNMAARWAAQMPSPRAAFLTLDTEQLATGGTGSAVPDPSKSLSSEKREVLTKANPVSSASDSDSSCSDIPTPTDPKLAAREIRLYYPKPRALLQRRNTICGCEYLSLKNSDLVVPSWHERKPGIGSPTNCDPGSPSIRDKSISFGYGLEMAARPTTCIGIAGDTSTDKARRMFHEARKLKQLTEDSQREFLVDRYKPGVSKVVRFDAKEDYVMKNEKFICNVENTILETFEPIPFADEGDEDA [chain 1 D80R]
0.4 | chain 1 AYINIAEWTPDQVTDWIKGLDESMKGYLYEFSKQEIGGRALLNIRPYELENLGMLRIGHQEIVLEAVENLRNFHYHLKNDNLQFMALHVATAAKNLHRELARNHAESTKIDTRILHDITRTIATLKPLVGSLERTPFRKQEMYREYCGNVLKCGLELATIAHRDRFALQPVPAIRQSAERLENLANFVIQDISDPMVLQPASLNLVTLKKRESELGFNIESSYNGIHRVTDIKYNSPAHNSGKIEDGDEIVQINYQTVVGWQHRTVLEHLREALPDVVLTVDKRPKHTKMFGQIYMQPYRLPSKKRNMAARWAAQMPSPRAAFLTLDTEQLATGGTGSAVPDPSKSLSSEKREVLTKANPVSSASDSDSSCSDIPTPTDPKLAAREIRLYYPKPRALLQRRNTICGCEYLSLKNSDLVVPSWHERKPGIGSPTNCDPGSPSIRDKSISFGYGLEMAARPTTCIGIAGDTSTDKARRMFHEARKLKQLTEDSQREFLVDRYKPGVSKVVRFDAKEDYVMKNEKFICNVENTILETFEPIPFADEGDEDA [chain 1 K282D]

Variants of: B1
Experiment: GST pull-down, immunoblot quantification; S2 cells; GST-HYP + RRKM co-expressed; anti-Flag (CNK) blot; parent: 1
Remark: another data set of the same source

ratio to parent | Variant
0.58 | chain 1 AYINIAEWTPDQVTDWIKGLDESMKGYLYEFSKQEIGGRALLNIRPYELENLGMLRIGHQEIVLEFVENLRNRHYHLKNDNLQFMALHVATAAKNLHRELARNHAESTKIDTRILHDITRTIATLKPLVGSLERTPFRKQEMYREYCGNVLKCGLELATIAHRDRFALQPVPAIRQSAERLENLANFVIQDISDPMVLQPASLNLVTLKKRESELGFNIESSYNGIHRVTDIKYNSPAHNSGKIEDGDEIVQINYQTVVGWQHRTVLEHLREALPDVVLTVKKRPKHTKMFGQIYMQPYRLPSKKRNMAARWAAQMPSPRAAFLTLDTEQLATGGTGSAVPDPSKSLSSEKREVLTKANPVSSASDSDSSCSDIPTPTDPKLAAREIRLYYPKPRALLQRRNTICGCEYLSLKNSDLVVPSWHERKPGIGSPTNCDPGSPSIRDKSISFGYGLEMAARPTTCIGIAGDTSTDKARRMFHEARKLKQLTEDSQREFLVDRYKPGVSKVVRFDAKEDYVMKNEKFICNVENTILETFEPIPFADEGDEDA [chain 1 A66F, chain 1 F73R]

Variants of: B1
Experiment: GST pull-down, immunoblot quantification; S2 cells; only Flag-CNK2–549 and GST-HYP co-expressed; anti-Flag blot; parent: 1
Remark: another data set of the same source

ratio to parent | Variant
0.12 | chain 1 AYINIAEWTPDQVTDWIKGLDESMKGYLYEFSKQEIGGRALLNIRPYELENLGMLRIGHQEIVLEFVENLRNRHYHLKNDNLQFMALHVATAAKNLHRELARNHAESTKIDTRILHDITRTIATLKPLVGSLERTPFRKQEMYREYCGNVLKCGLELATIAHRDRFALQPVPAIRQSAERLENLANFVIQDISDPMVLQPASLNLVTLKKRESELGFNIESSYNGIHRVTDIKYNSPAHNSGKIEDGDEIVQINYQTVVGWQHRTVLEHLREALPDVVLTVKKRPKHTKMFGQIYMQPYRLPSKKRNMAARWAAQMPSPRAAFLTLDTEQLATGGTGSAVPDPSKSLSSEKREVLTKANPVSSASDSDSSCSDIPTPTDPKLAAREIRLYYPKPRALLQRRNTICGCEYLSLKNSDLVVPSWHERKPGIGSPTNCDPGSPSIRDKSISFGYGLEMAARPTTCIGIAGDTSTDKARRMFHEARKLKQLTEDSQREFLVDRYKPGVSKVVRFDAKEDYVMKNEKFICNVENTILETFEPIPFADEGDEDA [chain 1 A66F, chain 1 F73R]
